According to FireProtDB (doi:10.1016/j.jmb.2009.04.075):
Values joined by “and” are separate entries in the source; they are usually repeats but may differ in a detail not shown here. Identical values can stand only once.

Details: Saccharomyces cerevisiae (strain ATCC 204508 / S288c); pH 7; 25 °C; GdnHCl; CD; Tris 20 mM; NaCl 40 mM; reversible: Yes

Sequence of Cytochrome c isoform 1 wild type, P00044 (P00044 whole entry, canonical isoform): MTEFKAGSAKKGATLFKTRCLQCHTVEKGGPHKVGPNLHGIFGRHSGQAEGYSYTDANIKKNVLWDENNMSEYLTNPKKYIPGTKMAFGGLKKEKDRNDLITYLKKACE

Cytochrome c isoform 1 wild type, P00044
denaturant midpoint (higher = more stable): 0.49 M and 0.45 M
